# From US11708423B2, “Chimeric engulfment receptor molecules and methods of use” (CERO THERAPEUTICS, INC., priority 2017, dated 2023)
# B1: CER116: Tim4 binding and transmembrane domains, TRAF6 primary and TLR8 secondary signaling domains; SEQ ID NO:143 (protein)
# chain: MSKGLLLLWLVTELWWLYLTPAASEDTIIGFLGQPVTLPCHYLSWSQSRNSMCWGKGSCPNSKCNAELLRTDGTRIISRKSTKYTLLGKVQFGEVSLTISNTNRGDSGVYCCRIEVPGWFNDVKKNVRLELRRATTTKKPTTTTRPTTTPYVTTTTPELLPTTVMTTSVLPTTTPPQTLATTAFSTAVTTCPSTTPGSFSQETTKGSAFTTESETLPASNHSQRSMMTISTDIAVLRPTGSNPGILPSTSQLTTQKTTLTTSESLQKTTKSHQINSRQTILIIACCVGFVLMVLLFLAFLMSLLNCENSCGSSQSESDCCVAMASSCSAVTKDDSVGGTASTGNLSSSFMEEIQGYDVEFDPPLESKYECPICLMALREAVQTPCGHRFCKACIIKSIRDAGHKCPVDNEILLENQLFPDNFAKREILSLMVKCPNEGCLHKMELRHLEDHQAHCEFALMDCPQCQRPFQKFHINIHILKDCPRRQVSCDNCAASMAFEDKEIHDQNCPLANVICEYCNTILIREQMPNHYDLDCPTAPIPCTFSTFGCHEKMQRNHLARHLQENTQSHMRMLAHHLFYWDVWFIYNVCLAKVKGYRSLSTSQTFYDAYISYDTKDASVTDWVINELRYHLEESRDKNVLLCLEERDWDPGLAIIDNLMQSINQSKKTVFVLTKKYAKSWNFKTAFYLALQRLMDENMDVIIFILLEPVLQHSQYLRLRQRICKSSILQWPDNPKAEGLFWQTLRNVVLTENDSRYNNMYVDSIKQY
# modifications: CER116 protein
# Legend:
# [1] = system: pHrodo-red labeled, dexamethasone treated thymocytes; test: Luminal degradation of engulfed thymocytes in CER-transduced Ba/F3 cells (time-lapse imaging); type: cell-based
# Protocol: Luminal degradation in CER-transduced cells was also evaluated following engulfment. Ba/F3 cells transduced with CER21 or CER116 were co-cultured with pHrodo-red labeled, dexamethasone treated thymocytes overnight and subsequently purified by FACS. Target cell destruction was visualized by time-lapse imaging and quantified over time (FIG. 85F). […] CER116-harboring Ba/F3 cells (top) catabolize target cells, allowing cells to return to homeostasis and resume immune responsiveness. The addition of a TRAF6 signaling domain to the CER construct promotes rapid destruction of engulfed material.
# [2] = system: CER-transduced CD4+ T cells; test: Mass cytometry (CyTOF) with viSNE marker analysis of CER-transduced CD4+ T cells; type: cell-based, human
# Excerpt: CD4+ T cells were transduced with lentiviral vector comprising CER104, CER116, or CER117 nucleic acid. CER104 (SEQ ID NO:133) comprises a Tim4 binding domain, Tim4 transmembrane domain, and an engulfment signaling domain comprising a primary engulfment signaling domain comprising a TLR8 signaling domain and a secondary engulfment signaling domain comprising a DAP12 signaling domain. CER116 (SEQ ID NO:143) comprises a Tim4 binding domain, Tim4 transmembrane domain, and an engulfment signaling domain comprising a primary engulfment signaling domain comprising a TRAF6 signaling domain and a secondary engulfment signaling domain comprising a TLR8 signaling domain. CER117 (SEQ ID NO:144) comprises a Tim4 binding domain, Tim4 transmembrane domain, and an engulfment signaling domain comprising a primary engulfment signaling domain comprising a TLR8 signaling domain and a secondary engulfment signaling domain comprising a TRAF6 signaling domain. CER-transduced CD4+ T cells were co-cultured with E7 TCR-transduced CD8+ T cells and HPV+SCC152 target cells and interrogated by mass cytometry (CyTOF) with viSNE for visualization of high dimensional single cell data (FIGS. 82-84). Intact CER-transduced CD4+ T cells are shown in plots displaying tSNE1 (horizontal) and tSNE2 (vertical) axes. 27 intracellular markers were used for the viSNE analysis. Each dot represents a single cell. […] Red represents high expression and blue represents low expression for each marker. Populations of CD4^+ T cells were generated using a clustering algorithm from all 27 markers and overlaid onto the viSNE map. […] Populations of CD4^+ T cells were generated using a clustering algorithm from all 18 markers and overlaid onto the viSNE map (FIG. 83A). […] Color plots by 18 intracellular markers (CD28, CCR7, CD45RA, PD1, CD127, Perforin, CD49d, CD85j, CD38, CD27, Granzyme B, CD57, CD25, CD69, CD154, CD56, HLA-DR, and TCRγδ) show the phenotype across viSNE ‘islands’ (FIG. 83B). Red represents high expression and blue represents low expression for each marker. Highlighted region with arrow indicates cells expressing T cell activation marker CD69. Populations of CD4^+ T cells were generated using a clustering algorithm from 18 intracellular markers (CD28, CCR7, CD45RA, PD1, CD127, Perforin, CD49d, CD85j, CD38, CD27, Granzyme B, CD57, CD25, CD69, CD154, CD56, HLA-DR, and TCRγ6) and overlaid onto the viSNE map. […] Color plots by the 18 intracellular markers show the phenotype across viSNE ‘islands’ (FIG. 84B). Red represents high expression and blue represents low expression for each marker. Highlighted region with arrow indicates cells expressing the naïve T cell marker CD45RA.
# Racl = Racl activation (PAK-PBD pull-down, immunoblot) in CER-transduced Ba/F3 cells; type: cell-based; conditions: 2 hours co-culture with thymocytes, compared to CER21
# Excerpt: The Rho family of GTPases play essential roles in actin assembly during phagocytosis. Inhibition of either Rho GTPase Racl or CDC42 in macrophages results in a complete blockade of FcR-mediated phagocytosis due to defective actin assembly. To investigate induction of phagocytic signal transduction cascades, CER-expressing cells were interrogated for the activation of CDC42 and Racl. […] Ba/F3 cells were transduced with lentiviral vectors comprising CER21 nucleic acid, CER116 nucleic acid, or vector alone (mock). Target thymocyte cells were stained with pHrodo red. CER-transduced Ba/F3 cells were co-cultured with dexamethasone pre-treated thymocytes for 2 hours. The Racl inhibitor NSC23766 (Selleck Chem) was added during the co-culture in appropriate wells. Cells were then collected, solubilized in lysis buffer, and immunoprecipitation was performed on protein lysates to detect phospho-Racl using PAK-PBD agarose beads (Cytoskeleton, Inc.). Immunoprecipitates were eluted and 25 μg of protein was loaded onto SDS-PAGE gradient gels and then probed with monoclonal, mouse anti-Racl primary antibody (Cytoskeleton Inc.) overnight at 4° C., washed, and hybridized with secondary, anti-mouse antibody conjugated to horseradish peroxidase (Jackson Labs) (FIG. 85A). […] Protein gel bands were quantified using ImageJ image processing program, and the proportion of activated Racl was quantified (FIG. 85B). […]
molecule,measurement,setting,value
B1,time to near complete resolution of luminal contents,[1],≤ 36 h
same,luminal content degradation over time,[1]; FACS purified after overnight co-culture,enhanced CER116 luminal content degradation over time
same,memory formation after antigen encounter,[2]; CD4+ T cells,associated with memory formation after antigen encounter
same,viSNE islands expressing T cell activation marker CD69,[2]; CD4+ T cells after antigen encounter,enrichment of islands expressing the T cell activation marker CD69
same,viSNE islands expressing intracellular marker IFNγ,[2]; CD4+ T cells after co-culture with E7 TCR CD8+ T cells and SCC152 cells,enrichment of islands expressing the intracellular marker IFNγ
same,viSNE islands expressing naïve T cell marker CD45RA within the CCR7+ population,[2]; compared to controls,loss of islands expressing the naïve T cell marker CD45RA
same,Racl signaling (proportion of activated Racl),Racl,enhanced Racl signaling
